According to article PMC7771068:
Where two headings read alike, the source gives them in different places.

Assays:
Assay in all cases: MST
[1] = target: T1, A3G-NTD-CTD2 (wild-type NTD fused to soluble CTD2) (Homo sapiens, UniProt Q9HC16 1-384, P200A;L234K;N236A;C243A;P247K;F310K;Q318K;C321A;Q322K;C356A)
A3G-NTD-R24A-CTD2 = A3G-NTD-R24A-CTD2 (Homo sapiens, UniProt Q9HC16 1-384, R24A;P200A;L234K;N236A;C243A;P247K;F310K;Q318K;C321A;Q322K;C356A)
[2] = target: T1, A3G-NTD-CTD2 (wild-type NTD fused to …); remark: listed apart in the source
[3] = target: T1, A3G-NTD-CTD2 (wild-type NTD fused to …); remark: listed apart in the source

T1 sequence (Q9HC16 whole entry P200A/L234K/N236A/C243A/P247K/F310K/Q318K/C321A/Q322K/C356A, the tested form may be a part): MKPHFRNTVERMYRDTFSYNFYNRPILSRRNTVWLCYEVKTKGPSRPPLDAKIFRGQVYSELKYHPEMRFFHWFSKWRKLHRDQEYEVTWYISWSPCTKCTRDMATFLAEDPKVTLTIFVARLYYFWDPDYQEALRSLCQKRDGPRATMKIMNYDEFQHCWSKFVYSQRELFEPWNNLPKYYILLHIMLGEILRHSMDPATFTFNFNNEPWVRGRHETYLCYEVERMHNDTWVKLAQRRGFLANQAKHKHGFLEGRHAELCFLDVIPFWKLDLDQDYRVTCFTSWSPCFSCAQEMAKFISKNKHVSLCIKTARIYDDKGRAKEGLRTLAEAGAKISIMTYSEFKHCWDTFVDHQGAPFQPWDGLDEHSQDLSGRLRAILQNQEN
Sequence of A3G-NTD-R24A-CTD2 (Q9HC16 whole entry R24A/P200A/L234K/N236A/C243A/P247K/F310K/Q318K/C321A/Q322K/C356A, the tested form may be a part): as the sequence (Q9HC16 whole entry P200A/L234K/N236A/C243A/P247K/F310K/Q318K/C321A/Q322K/C356A, the tested form may be a part) above, with R24A counted along it

| Binder | Kd [1] [µM] | Kd (A3G-NTD-R24A-CTD2) [µM] | Kd [2] [µM] | Kd [3] [µM] |
| --- | --- | --- | --- | --- |
| AATTCCAATTTTTTTT (ssDNA) [16-nt CC (5'-TCC-polyT)] | 31.4 ± 3.8 | 132 ± 2.6 |  |  |
| AATCCCAAA (ssDNA) [9-nt CCC] |  |  | 20.5 |  |
| AATCCCAATTTTTTTT (ssDNA) [16-nt CCC (5'-TCCC-polyT)] | 4.9 ± 0.1 | 24.6 ± 2.7 |  | 6.8 |
